Laboratory results: PMC10778174

Target: BG505-SOSIP trimer Env (subtype A) (HIV-1 (subtype A, BG505))
Assay: SEC + other: negative-stain EM; gel-filtration and negative-stain EM of the purified BG505 SOSIP; conditions not given

BG505-SOSIP trimer Env (subtype A) (complex)
stoichiometry N: 3
